We go through 21 molecules from patent publication US20030171289A1 (INSTITUT PASTEUR, published 2003).

Assay [1] addresses T1, KDR (kinase domain receptor, VEGFR-2) expressed on cells (UniProt P35968 20-1356, limits assumed).
T1 construct: whole, on cells; The same molecule is used for KDR on CHO-KDR cells and for VEGF-R2 on HUV-EC cells; the cells are named under assay; also called KDR/Flk-1; VR2
Briefly: displacement of 125I-VEGF165 from CHO-KDR cells.

The target of assay [2] is T1, KDR (kinase domain receptor, VEGFR-2) …. Briefly: phage ELISA on fixed CHO-KDR cells.
Experimental: (§1) Exponentially growing CHO-KDR cells were seeded in 96-well microtiter plates at 7×10⁴ cells/well and left overnight at 37 C. Cells were fixed with paraformaldehyde (4% in PBS) for 15 min at room temperature and washed with PBS. Wells were then filled with PBS-Glycine 0.2%, kept for 15 min at room temperature and then washed with PBS. Phage particles (10¹² or 10¹³/ml) were added to each well and incubated 2 h at room temperature. Wells were washed with PBS and the amount of bound phage was detected with peroxidase-conjugated anti-M13 phage serum (Pharmacia Biotech, Uppsala, Sweden).
Assay [3] has the same target. Briefly: displacement of 125I-VEGF165 from CHO-KDR cells. This is another data set of the same source.
For assay [4] the target is unchanged. The experiment in a line: displacement of 125I-VEGF165 from CHO-KDR cells, curve fitting (CI50).
The target is the same in assay [5]. The experiment in a line: phage ELISA on CHO-KDR cells, 10^13 pfu/ml.
Experimental: Results are representative of three independent assays.
as §1
The next assay concerns the target T2, neuropilin 1 (UniProt O14786 22-923, limits assumed).
T2 construct: whole, on cells; also called NP 1; NP1
The experiment in a line: displacement of 125I-VEGF165 from MDA-MB 231 cells (neuropilin 1, no VEGF-R2).

Assay [6] concerns the target T1, KDR (kinase domain receptor, VEGFR-2) …. Briefly: competition with 125I-VEGF for binding to CHO-KDR cells.
Experimental: (§2) Competition assay of binding to CHO-KDR cells. CHO-KDR cells were seeded in 24-well plates at a density of 5×10⁵ cells/well. After 24 h, subconfluent plates were transferred at 4 C, and all subsequent operations were done at 4 C. […] After 3 h, cells were washed five times with binding buffer and solubilized by the addition of 0.5 M NaOH.
The target is the same in assay [7]. Briefly: competition with 125I-VEGF for binding to CHO-KDR cells, fixed peptide concentration.
Experimental: as §2

T1 sequence (P35968 20-1356 limits assumed): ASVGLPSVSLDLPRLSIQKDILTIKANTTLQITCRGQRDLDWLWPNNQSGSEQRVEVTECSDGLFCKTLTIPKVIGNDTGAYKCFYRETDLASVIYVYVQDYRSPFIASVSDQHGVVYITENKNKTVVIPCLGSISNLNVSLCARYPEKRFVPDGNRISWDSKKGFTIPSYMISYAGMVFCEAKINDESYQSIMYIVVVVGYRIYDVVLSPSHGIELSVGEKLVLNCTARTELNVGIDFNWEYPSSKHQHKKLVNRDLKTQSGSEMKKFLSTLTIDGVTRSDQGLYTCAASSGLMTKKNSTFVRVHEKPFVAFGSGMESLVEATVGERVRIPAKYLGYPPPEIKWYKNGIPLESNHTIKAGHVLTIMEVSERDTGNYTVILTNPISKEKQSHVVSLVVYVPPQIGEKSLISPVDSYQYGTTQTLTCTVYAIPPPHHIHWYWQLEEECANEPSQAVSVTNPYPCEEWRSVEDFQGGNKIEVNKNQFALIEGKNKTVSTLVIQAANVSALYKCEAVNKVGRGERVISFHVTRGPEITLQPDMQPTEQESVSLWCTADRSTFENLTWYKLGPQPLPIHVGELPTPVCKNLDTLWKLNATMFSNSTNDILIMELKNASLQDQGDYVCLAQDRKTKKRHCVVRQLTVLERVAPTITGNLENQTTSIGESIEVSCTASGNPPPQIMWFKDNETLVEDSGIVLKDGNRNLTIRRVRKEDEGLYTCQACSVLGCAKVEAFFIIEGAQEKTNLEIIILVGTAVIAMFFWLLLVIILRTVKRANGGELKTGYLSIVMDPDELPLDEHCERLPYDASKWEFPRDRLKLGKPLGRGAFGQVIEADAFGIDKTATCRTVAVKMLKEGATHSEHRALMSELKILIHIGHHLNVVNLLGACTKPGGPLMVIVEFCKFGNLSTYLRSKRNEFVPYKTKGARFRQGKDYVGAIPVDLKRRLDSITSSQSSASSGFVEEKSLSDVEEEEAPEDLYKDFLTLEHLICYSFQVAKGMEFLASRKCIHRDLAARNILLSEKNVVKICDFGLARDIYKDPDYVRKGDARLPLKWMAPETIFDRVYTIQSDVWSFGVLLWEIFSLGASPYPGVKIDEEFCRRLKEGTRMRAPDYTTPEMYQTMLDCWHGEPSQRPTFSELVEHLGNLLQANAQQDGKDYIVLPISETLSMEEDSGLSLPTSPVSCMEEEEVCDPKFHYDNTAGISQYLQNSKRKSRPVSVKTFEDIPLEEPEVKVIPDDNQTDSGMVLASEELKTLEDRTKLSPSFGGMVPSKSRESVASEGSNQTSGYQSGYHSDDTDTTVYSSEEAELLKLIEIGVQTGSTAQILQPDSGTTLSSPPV
T2 sequence (O14786 22-923 limits assumed): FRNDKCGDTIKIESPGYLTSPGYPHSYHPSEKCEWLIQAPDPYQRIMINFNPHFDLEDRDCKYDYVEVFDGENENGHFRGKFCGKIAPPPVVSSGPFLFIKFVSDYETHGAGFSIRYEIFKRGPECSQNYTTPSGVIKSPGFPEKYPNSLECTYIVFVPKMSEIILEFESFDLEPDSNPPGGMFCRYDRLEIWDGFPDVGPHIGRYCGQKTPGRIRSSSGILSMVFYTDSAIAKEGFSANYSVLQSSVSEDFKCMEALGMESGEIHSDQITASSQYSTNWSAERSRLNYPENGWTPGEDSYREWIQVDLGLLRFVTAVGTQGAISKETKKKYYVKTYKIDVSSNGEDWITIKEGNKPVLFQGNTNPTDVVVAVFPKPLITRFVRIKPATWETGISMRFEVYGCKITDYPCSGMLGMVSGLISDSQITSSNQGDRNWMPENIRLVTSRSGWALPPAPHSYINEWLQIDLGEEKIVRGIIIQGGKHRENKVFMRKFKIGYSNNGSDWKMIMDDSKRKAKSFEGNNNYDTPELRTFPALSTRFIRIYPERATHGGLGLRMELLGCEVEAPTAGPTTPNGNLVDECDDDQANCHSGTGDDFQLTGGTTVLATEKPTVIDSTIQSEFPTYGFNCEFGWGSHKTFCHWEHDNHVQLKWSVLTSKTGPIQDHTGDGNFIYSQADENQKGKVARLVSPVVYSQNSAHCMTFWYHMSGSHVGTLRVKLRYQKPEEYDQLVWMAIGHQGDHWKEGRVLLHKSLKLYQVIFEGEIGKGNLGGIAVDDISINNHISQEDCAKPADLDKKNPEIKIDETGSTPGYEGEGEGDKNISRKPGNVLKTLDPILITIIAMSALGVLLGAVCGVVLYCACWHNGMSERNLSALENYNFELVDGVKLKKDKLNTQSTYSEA

On to AAAAAAR (position 1 is already alanine) [V1 analogue A11 (the 6 amino acids upstream to arginine substituted by alanine)], for which the “factor by which the inhibitory efficiency is lowered against V1” value in assay [1] came to 10 fold.

B1: phage-displayed peptide V4 (M13 phage clone) (peptide)
chain: YHSSFQA
notes: not shown: M13 phage coat protein of the Ph.D.-7 library
B1: the binding result in assay [2] is given as “binds”.
Regarding AAWLPPR (Ala scan analogue of ATWLPPR (V1)) [V1 analogue A2], in assay [3], the “Efficiency (% Emax)” value stood at 61 % Emax. The molecule further gave an IC50 in assay [4] of 30.9 µM.
Turning to ATALPPR (Ala scan analogue of ATWLPPR (V1)) [V1 analogue A3], the “Efficiency (% Emax)” value in assay [3] is 70 % Emax. In assay [4], this molecule displayed an IC50 of 26.8 µM.
The like results for ATWLAPR (Ala scan analogue of ATWLPPR (V1)) [V1 analogue A5] were, in that order, 65 % Emax and 29.1 µM.
Turning to ATWAPPR (Ala scan analogue of ATWLPPR (V1)) [V1 analogue A4], in assay [3], the “Efficiency (% Emax)” value amounted to 31 % Emax. Also, the IC50 in assay [4] was 60.7 µM.
In the case of ATWLPAR (Ala scan analogue of ATWLPPR (V1)) [V1 analogue A6], the “Efficiency (% Emax)” value in assay [3] amounted to 84 % Emax. The same molecule came in with an IC50 in assay [4] of 22.4 µM.

B2: phage-displayed peptide V6 (M13 phage clone) (peptide)
chain: LPPNPTK
notes: as for B1
For the molecule B2, the binding result in assay [2] was “binds”.

B3: phage-displayed peptide V7 (M13 phage clone) (peptide)
chain: YAIMPLV
notes: as for B1
Turning to B3, the binding result in assay [2] is listed as “binds”.

B4: phage-displayed peptide K2 (M13 phage clone) (peptide)
chain: WPTPPYA
notes: as for B1
As for B4, the binding result in assay [5] was “binds”.

B5: phage-displayed peptide K3 (M13 phage clone) (peptide)
chain: TPHNTVS
notes: as for B1
As to B5, the binding result in assay [5] was “binds”.

B6: phage-displayed peptide K6 (M13 phage clone) (peptide)
chain: YSIPKSS
notes: as for B1
In the case of B6, in assay [5], the binding result is on record as “binds”.

B7: phage-displayed peptide K1 (M13 phage clone) (peptide)
chain: YLTMPTP
notes: as for B1
Consider B7, for which the binding result in assay [5] is on record as “binds”.

B8: phage-displayed peptide K4 (M13 phage clone) (peptide)
chain: SLPAHAR
notes: as for B1
On to B8, for which the binding result in assay [5] was “binds”.

B9: synthetic peptide V1 (ATWLPPR) (peptide)
peptide: ATWLPPR
notes: Synthetic peptide (Neosystem); also called V1 peptide
As for B9, the IC50 in the assay with neuropilin 1 is 38 µg/mL; in assay [6], roughly 80 µM; in assay [4], 18.8 µM. Also, the “Efficiency (% Emax)” value in assay [3] amounted to 100 % Emax.
For SLPAHAR (Synthetic peptide (Neosystem)) [synthetic peptide K4 (SLPAHAR)], the binding result in assay [7] is listed as “binds”.

B10: phage-displayed peptide K7 (M13 phage clone) (peptide)
chain: ALQPRYL
notes: as for B1
Regarding B10, the binding result in assay [5] was “binds”.

B11: phage-displayed peptide V3 (M13 phage clone) (peptide)
chain: ANLFKAK
notes: as for B1
For the molecule B11, the binding result in assay [2] is recorded as “binds”.

B12: phage-displayed peptide K5 (M13 phage clone) (peptide)
chain: HSSLQTP
notes: as for B1
Turning to B12, the binding result in assay [5] is “binds”.

B13: phage-displayed peptide V5 (M13 phage clone) (peptide)
chain: ILDNYKL
notes: as for B1
Turning to B13, the binding result in assay [2] is “binds”.

B14: phage-displayed peptide V2 (M13 phage clone) (peptide)
chain: NPRALNY
notes: as for B1
Regarding B14, the binding result in assay [2] is given as “binds”.
